Laboratory results published in the Immune Epitope Database (IEDB).
Blank lines part the entries; values can stand above or below the sequence they belong to.

Columns and labels:
HLA-A*01:01 = test: IEDB peptide-MHC binding, purified MHC/competitive/radioactivity; filed as Kd, often an IC50 or EC50 that approximates it; ≥ and ≤ were set here for values at or beyond the usual limits of such assays
HLA-A*26:01 = test: as above
HLA-A*24:02 = test: as above
HLA-A*29:02 = test: as above
HLA-A*23:01 = test: as above
HLA-A*30:02 = test: as above
HLA-A*02:01 = test: IEDB peptide-MHC binding, purified MHC/direct/fluorescence; filed as Kd, often an IC50 or EC50 that approximates it; ≥ and ≤ were set here for values at or beyond the usual limits of such assays
HLA-A*30:01 = test: IEDB peptide-MHC binding, purified MHC/competitive/radioactivity; filed as Kd, often an IC50 or EC50 that approximates it; ≥ and ≤ were set here for values at or beyond the usual limits of such assays
HLA-A*69:01 = test: IEDB peptide-MHC binding, purified MHC/direct/fluorescence; filed as Kd, often an IC50 or EC50 that approximates it; ≥ and ≤ were set here for values at or beyond the usual limits of such assays
HLA-A*03:01 = test: as above
HLA-A*02:06 = test: IEDB peptide-MHC binding, purified MHC/competitive/radioactivity; filed as Kd, often an IC50 or EC50 that approximates it; ≥ and ≤ were set here for values at or beyond the usual limits of such assays
HLA-B*44:02 = test: as above; details: source organism: Dengue virus 3 Martinique/1243/1999
HLA-A*02:03 = test: as above; details: source organism: SARS coronavirus Tor2
HLA-A*02:02 = test: as above; details: source organism: SARS coronavirus Tor2
[1] = source organism: Mammarenavirus machupoense
[2] = source organism: Dengue virus 4 Philippines/H241/1956
[3] = source organism: Dengue virus 2 Jamaica/1409/1983
[4] = source organism: Dengue virus 3 Martinique/1243/1999
[5] = source organism: Salmonella enterica subsp. enterica serovar Paratyphi A
[6] = source organism: SARS coronavirus Tor2
[7] = source organism: Vaccinia virus WR
[8] = source organism: Dengue virus 4 Dominica/814669/1981
[9] = source organism: Lymphocytic choriomeningitis virus (strain Armstrong)
[10] = source organism: Encephalitozoon cuniculi
[11] = source organism: Dengue virus 1 Brazil/97-11/1997
[12] = source organism: Serratia proteamaculans
[13] = source organism: Mammarenavirus lassaense

Sequence: AESLVGFLFY
Kd (HLA-A*01:01; [1]): ≥ 52.1 µM
Kd (HLA-A*26:01; [1]): ≥ 69.7 µM
Kd (HLA-A*24:02; [1]): ≥ 70.3 µM
Kd (HLA-A*29:02; [1]): 0.0976 µM
Kd (HLA-A*23:01; [1]): ≥ 66.2 µM
Kd (HLA-A*30:02; [1]): 0.45 µM

Sequence: AGGLLLAAY
Kd (HLA-A*30:02; [2]): 0.0597 µM

Sequence: AGPVSQHNY
Kd (HLA-A*30:02; [3]): 0.0232 µM

Kd (HLA-A*02:01; source organism: Homo sapiens): 12.7 µM
Sequence: ALPPPPPPP

Sequence: ALTLATGPIT
Kd (HLA-A*30:01; [4]): 0.159 µM

Sequence: AQLPRWVAT
Kd (HLA-A*69:01; [5]): 7 µM
Kd (HLA-A*02:01; [5]): 19.9 µM

Sequence: AWNSLEVEDY
Kd (HLA-A*30:02; [3]): 0.613 µM

Sequence: AYSKSLKELV
Kd (HLA-A*01:01; [1]): ≥ 70.4 µM
Kd (HLA-A*26:01; [1]): ≥ 69.7 µM
Kd (HLA-A*24:02; [1]): 2.64 µM
Kd (HLA-A*29:02; [1]): ≥ 57 µM
Kd (HLA-A*23:01; [1]): 16.3 µM
Kd (HLA-A*30:02; [1]): ≥ 26.7 µM

Sequence: CGSVGFNIDY
Kd (HLA-A*01:01; [6]): 7.3 µM
Kd (HLA-A*26:01; [6]): ≥ 20.7 µM
Kd (HLA-A*24:02; [6]): ≥ 70.3 µM
Kd (HLA-A*29:02; [6]): 0.774 µM
Kd (HLA-A*23:01; [6]): ≥ 70 µM
Kd (HLA-A*30:02; [6]): 0.371 µM

Sequence: CSRCLSLFY
Kd (HLA-A*30:01; [7]): 0.0221 µM

Sequence: DFGSVGGLF
Kd (HLA-A*24:02; [8]): 2.64 µM

Sequence: DYFESFSSFF
Kd (HLA-A*24:02; [9]): 0.011 µM
Kd (HLA-A*29:02; [9]): 0.000356 µM
Kd (HLA-A*23:01; [9]): 0.00472 µM

Sequence: EISNMLNIM
Kd (HLA-A*26:01; source organism: Dengue virus 1 Singapore/S275/1990): 0.476 µM

Sequence: EISNMLSII
Kd (HLA-A*26:01; [4]): 3.37 µM

Sequence: EKMEALQRKY
Kd (HLA-A*26:01; source organism: Dengue virus 2 16681-PDK53): 6.38 µM

Sequence: EKTQAIDGEF
Kd (HLA-A*26:01; [8]): ≥ 69.7 µM

Sequence: EVEDYGFGM
Kd (HLA-A*26:01; [2]): 3.9 µM

Sequence: EWSVATFYL
Kd (HLA-A*01:01; [6]): ≥ 78.1 µM
Kd (HLA-A*26:01; [6]): ≥ 45.4 µM
Kd (HLA-A*24:02; [6]): 1.78 µM
Kd (HLA-A*29:02; [6]): ≥ 59.4 µM
Kd (HLA-A*23:01; [6]): 5.5 µM
Kd (HLA-A*30:02; [6]): ≥ 29.7 µM

Sequence: FFFVYENAF
Kd (HLA-A*01:01; [6]): 2.67 µM
Kd (HLA-A*26:01; [6]): 9.24 µM
Kd (HLA-A*24:02; [6]): ≥ 60.4 µM
Kd (HLA-A*29:02; [6]): ≥ 23.9 µM
Kd (HLA-A*23:01; [6]): ≥ 24 µM
Kd (HLA-A*30:02; [6]): ≥ 96.8 µM

Sequence: FMFGPTIYY
Kd (HLA-A*03:01; source organism: Entamoeba histolytica HM-1:IMSS): 0.043 µM

Kd (HLA-A*69:01; [10]): ≥ 20 µM
Kd (HLA-A*02:01; [10]): 0.168 µM
Sequence: FMRSISDDA

Sequence: FSNSGADVLY
Kd (HLA-A*01:01; [6]): 0.0153 µM
Kd (HLA-A*26:01; [6]): 3.56 µM
Kd (HLA-A*24:02; [6]): ≥ 70.3 µM
Kd (HLA-A*29:02; [6]): 0.0749 µM
Kd (HLA-A*23:01; [6]): ≥ 70 µM
Kd (HLA-A*30:02; [6]): 0.00914 µM

Sequence: FSSRMYCSFY
Kd (HLA-A*01:01; [6]): 0.00272 µM
Kd (HLA-A*26:01; [6]): 0.023 µM
Kd (HLA-A*24:02; [6]): ≥ 43.1 µM
Kd (HLA-A*29:02; [6]): 0.0402 µM
Kd (HLA-A*23:01; [6]): ≥ 42.4 µM
Kd (HLA-A*30:02; [6]): 0.00215 µM

Sequence: FTDENKWKS
Kd (HLA-A*01:01; [3]): 5.26 µM

Sequence: FTDPASIAA
Kd (HLA-A*01:01; [3]): 0.00726 µM
Kd (HLA-A*02:06; [3]): 0.0326 µM

Sequence: FVSLAIDAY
Kd (HLA-A*01:01; [6]): 2.45 µM
Kd (HLA-A*26:01; [6]): 1.73 µM
Kd (HLA-A*24:02; [6]): 17.3 µM
Kd (HLA-A*29:02; [6]): 0.0216 µM
Kd (HLA-A*23:01; [6]): ≥ 28.8 µM
Kd (HLA-A*30:02; [6]): 0.897 µM

Sequence: FYTTTGIGY
Kd (HLA-A*01:01; [6]): 0.242 µM
Kd (HLA-A*26:01; [6]): 0.153 µM
Kd (HLA-A*24:02; [6]): ≥ 45.8 µM
Kd (HLA-A*29:02; [6]): ≥ 46.2 µM
Kd (HLA-A*23:01; [6]): ≥ 60.6 µM
Kd (HLA-A*30:02; [6]): ≥ 93.8 µM

Sequence: GAKIIHRYA
Kd (HLA-A*30:01; [7]): 0.118 µM

Sequence: GDNALKINW
Kd (HLA-B*44:02): 0.15 µM

Sequence: GGMLVRNPLS
Kd (HLA-A*30:01; [11]): 4.27 µM

Sequence: GLMWLSYFV
Kd (HLA-A*69:01; source organism: SARS-CoV1): 0.347 µM
Kd (HLA-A*02:01; source organism: SARS-CoV1): 3.19 µM
Kd (HLA-A*03:01; source organism: SARS-CoV1): ≥ 33 µM
Kd (HLA-A*02:03): 0.00082 µM
Kd (HLA-A*02:02): 0.000199 µM
Kd (HLA-A*02:06; [6]): 0.000975 µM

Kd (HLA-A*69:01; [12]): 3.41 µM
Kd (HLA-A*02:01; [12]): 0.0247 µM
Sequence: GMPNWCVSI

Sequence: GVYPMSIPAT
Kd (HLA-A*30:01; [11]): 10.4 µM

Sequence: GYISTRVEM
Kd (HLA-A*23:01; [3]): 1.14 µM

Sequence: HEMYWISNG
Kd (HLA-B*44:02): 0.495 µM

Sequence: HLRDQSIKI
Kd (HLA-A*30:01; [7]): 0.0152 µM

Sequence: HQYPANLFY
Kd (HLA-A*30:01; [7]): 0.0508 µM

Sequence: HTSSMRGVYY
Kd (HLA-A*01:01; [6]): 0.0585 µM
Kd (HLA-A*26:01; [6]): 0.0527 µM
Kd (HLA-A*24:02; [6]): ≥ 46.8 µM
Kd (HLA-A*29:02; [6]): 0.0178 µM
Kd (HLA-A*23:01; [6]): ≥ 70 µM
Kd (HLA-A*30:02; [6]): 0.0034 µM

Sequence: HVFQEYRLK
Kd (HLA-A*30:01; [7]): 0.0266 µM

Sequence: HWPKSHTLW
Kd (HLA-A*24:02; [3]): 1.17 µM

Sequence: ICGGTIDAY
Kd (HLA-A*01:01; [13]): ≥ 40.2 µM
Kd (HLA-A*26:01; [13]): ≥ 77.9 µM
Kd (HLA-A*24:02; [13]): ≥ 77.5 µM
Kd (HLA-A*29:02; [13]): ≥ 21.8 µM
Kd (HLA-A*23:01; [13]): ≥ 77.7 µM
Kd (HLA-A*30:02; [13]): 0.0686 µM
